Laboratory results reported in the DeepSol protein solubility set.

test: soluble on expression in E. coli; label from the status in PepcDB or PDB records

**Q.** Which “soluble on expression in E. coli” value does the source give for “GPLGSMADSQDPLHERTRRLLSDYIFFCAREPDTPEPPPTSVEAALLRSVTRQIQQEHQEFFSSFCESRGNRLELVKQMADKLLSKDQDFSWSQLVMLLAFAGTLMNQGPYMAVKQKRDLGNRVIVTRDCCLIVNFLYNLLMGRRHRARLEALGGWDGFCRFFKNPLPLG” here?
**A.** soluble

**Q.** Which “soluble on expression in E. coli” value does the source give for “MAHKQSTNNETSNGSTTEIIDETDARAQLESGRTTPTLLLRLEHPRNERRVAFHAGIIDNEHLNRKKSKCCCIYKKPLAFGESSSEDDEDCEHCFGHPEKRQRNAKHNHNHGDKPCTEASHPEGPSTSTQAAHISQPPAEPVESKTDPKPPTPGVDFEQTGSSMGHHHHHHSH” here?
**A.** soluble

**Q.** For “MGSDKIHHHHHHMEYATLGNSGVEVSEVGFGAWVVGTDWWGDRTRDDAIDMVQHALDEDVTFFDTGDVYGHGDSEEIIGEALAEHRDEVTVSTKIGYDFYNNPQAGHGELPKKVTPEWVHTAVDRSLDRLGMDHVELLMLHNANVDEVDEDVLEALDELREEGKVDAIGWALGPSIGWLAEGDAAVANEFDALQTVFNLFEQTPGQHFIDTIREQNADTSVLARVPHSSGLLNEQVTPETELGKGDHRSHRPSEWYETGWEKVEEIRFLERDGARTMGQAAIQWLLYNDEVASVTPTFRTNADIDEWAGAPDTPPLSDEEYDRVQELYRDNFGIDRDDGMDALRSSVGGADLEETGMKSAGD”, which “soluble on expression in E. coli” value is on record?
**A.** not soluble

**Q.** Which “soluble on expression in E. coli” value does the source give for “MNVTYLHDEDLDFLQHCSEEQLADFARLLTHNEKGKARLSSVLSHNELFKAMEGHPEQHRRNWQLIAGEFQHYGGDSIANKLRGHGKQYRAILLDVAKRLKLKADKSMSTFEIEQQLLEHFLRHTWQKMDAAHKQEFLQAVDAKVSELEELLPLLMKDRSLAKGVSHLLSTQLTRILRTHAAMSILGHGLLRGAGLGGPVGAALNGVKAMSGSAYRVTIPAVLQIACLRRMMAAVQA” here?
**A.** not soluble

**Q.** Which “soluble on expression in E. coli” value does the source give for “MPGSLPPNGESSWPKDVGIVALEIYFPSQYVDQEELEKFDGVSAGKYTIGLGQSKMGFCSDREDINSLCLTAVQRLMERNNLSYDCIGRLEVGTETIIDKSKSVKTVLMQLFEESGNTDVEGIDTTNACYGGTAALFNAVNWVESSSWDGRYALVVAGDIAVYATGSARPTGGAGAVAMLVGPNATLVFERGLRGTHMQHAYDFYKPDMESEYPVVDGKLSIQCYLSALDHCYSTYRKKIHAQWQKEGTEKPFTLNDFGFMIFHSPYCKLVQKSFARLLVNDFISDSNPNTESGVYVGLDSFRDLKLEETYFDRDVEKAFLKASTELFNEKTKTSLLVSKENGNMYTPSVYGCLASVLAQYSPQQLAGQRIGVFSYGSGFAATLYSLRVSQDAMPGSSLDKLTSSLSDLKARLDSRKNVSPSIFADNMKLREDTHHLANYVPQGSVDDLFPGTWYLVRVDEKHRRFYARSSLMRDGPLDAAPESVHSSTANEHFPSPAKKVPRIPPAAEAEPISVTNGGH” here?
**A.** soluble

**Q.** For “MGHHHHHHSHMVKMEPENKYLPELMAEKDSLDPSFTHAMQLLTAEIEKIQKGDSKKDDEENYLDLFSHKNMKLKERVLIPVKQYPKFNFVGKILGPQGNTIKRLQEETGAKISVLGKGSMRDKAKEEELRKGGDPKYAHLNMDLHVFIEVFGPPCEAYALMAHAMEEVKKFLVPDMMDDICQEQFLELSYLNG”, which “soluble on expression in E. coli” value is on record?
**A.** soluble

**Q.** Which “soluble on expression in E. coli” value does the source give for “SHMAGHQIVHVRGDSETDLEALFNAVMNPKTANVPQTVPMRLRKLPDSFFKPPEPKSHSRQASTDAGTAGALTPQHVRAHSSPASLQLGAVSPGTLTPTGVVSGPAATPTAQHLRQSSFEIPDDV” here?
**A.** soluble

**Q.** With “MAKIILRHLIEIPVRYQEEFEARGLEDCRLDHALYALPGPTIVDLRKTRAAQSPPVDSAAETPPREGKSHFQILLDVVQFLPEDIIIQTFEGWLLIKAQHGTRMDEHGFISRSFTRQYKLPDGVEIKDLSAVLCHDGILVVEVKDPVGTK” as the sequence, how does the “soluble on expression in E. coli” value read?
**A.** soluble

**Q.** Which “soluble on expression in E. coli” value does the source give for “MSLANADTYQPSYSTAGFYQLSNTGRTVYNMNPAWRFYKGNIEGAEQPRFNDKDWNIVSLPDGIEYLPTEASGCINYQGEIWYRKHFTPKESWKGKQQFLHFEAIMGKSKIWVNGKLLKEHFGGFLPVIVDVTSSLKYGEDNVITVWADNSDDPSYPPGKPQDALDFAYFGGIYRDCWMIVHNKVFITDPNYENETAGGGLFVSFDKVSEQSAQLKLDAHIRNTSGKSFSGKIIYELYDRDDKRVLSKETGLSVSKDLAKQISCKVTVETPHLWSPDSPYLYKLHIYIKDKAGNTIDGYYRRIGIRSIEFKGKDGFWLNGKPYPYPLMGANRHQDFAVIGNALPNSLHWRDAKKLRDAGMRVIRNAHYPQDPAFMDACDELGLFVIVNTPGWQFWNDQPIFAQRVYSDIRNMVRRDRNHPSVWMWEPILNETWYPADFAKNVVDILNEEYPYPYCYAGCDVTARGHEYFPIHFTHPMNGGGGAFNTENLDPKISYFTREWGDNVDDWNSHNSPSRVNRGWGEVPMLIQAQGYAKNDYQLTSYDGLYRTSRQHMGGCLWHSFDHQRGYHPDPFYGGIMDAFRQPKLSYYMFCSQRPAEPNKELIADEGHHHHHH” here?
**A.** soluble

**Q.** With “MLSNNVNPVVGLSYRPLPETPPSGQAAAHPSMRLLEPNNDEFVRSVASPRLHHSSEALREVKHDVRQFQASGDRSLQQLRDLEVALNHWEASQPREFAKRGGMVAELRTAIDAYKQQLHEQAPSHANLDVKWLDGLRAGSMALQGDVKVWMQNLEDLHTRRPDEFAARLQQSTDALYSHLEAQWAKQHGTPPTASDVAGMPQWQEYTAMLRERFAGLDTIRPNLTAEENGVAILKTQTQLLALQRAQEALQASLADGVSHQGDVGLLRTQLLAGMVEGLIALQQADDDSALWSRPSAADSGGRLSVEAGAKASTDFEAPASKGELLRGKGISGEAVLEAFANIEMSVSGSRAGAAGEAEGSLRLYGESTARAEVSGSFEPFALSGSIGREEADGDTAASANPVLSLNVSAELSSKLGLEAQGSVTLGSLLKLDAEGRAEVGASAEVSGTAAIDKRSDGLGVRLEGQAEAFAGLKAEGTLTANLLHSKYADAHGLTASVTGSANVGLGATAEGKLVASPGQFEMGGEVGTTLGVGGNIGWNSKVDVNASTAYAYELASAAMARFDALRASQLDHDAKTSGNESQLNRLAANLQSHIDATSQKLDALNSAGVESRIRKVDGFAAGDGAQAAAGLAAQMALVGTGADLSHDIKITALNLRA” as the sequence, how does the “soluble on expression in E. coli” value read?
**A.** not soluble

**Q.** For “MVLRKLSTYRQKRDFEKTPEPSGEAAVASSKQRRFVIQKHDASRLHYDFRLEFDGVFKSWAVTKGPSLDPHDKRLAVEVEDHPLDYGDFEGTIPEGQYGGGTVMLWDRGTWEADDPERGFKKGDLKFTLHGEKLHGSWVLVRMRNDRDGGKRTNWLLIKHRDEYAREGEDILAEDKSVASGRAMAQIAEGKGLEHHHHHH”, which “soluble on expression in E. coli” value is on record?
**A.** not soluble

**Q.** For “MSLKQAIFVMMDQYADWEGAHLSSQLNQMTDWTVKTASNQPEVTSIGGWTTRVDYQISELNPEMTLLVLIGGNAWQHDDPRLTALIQQCLQRKVIVGAICGAVDYLARNGLLTGYRHTGNAQFSWQSFPKYQNPTDFELQQVVVDRQLVTANGTAALSFTSAVLKASGQLTIAAKQALDLQQLGYYDNTETHLNEGHHHHHH”, which “soluble on expression in E. coli” value is on record?
**A.** not soluble

**Q.** With “MGSDKIHHHHHHMSKNEIIWFDGKWSDSGVPMIGAADHAFWMASTVFDGARAINGHLPDLSAHSQRVINSALTMGMKPKIDRQEIERLVHEGMSHLTNQETDYYIKMLFFCPGGFLLPDADTTTFALHIFEAPLPEDKGFSATFSEYRRPAPSMAPTEAKASCLYPNTQRIIRDAIARGFENAVVLDSDGNVAEFAVANLWIVRDGVALTPTPNGSFLNGITRQRVMALLRDDGITVRETQLAPSDVMEADEVFSTGNHGKVLHCNRVEDRSLPYGPIAQRARELYMAYAHTC” as the sequence, how does the “soluble on expression in E. coli” value read?
**A.** not soluble

**Q.** Which “soluble on expression in E. coli” value does the source give for “GPGSMTGPFRYVITDMDGTLLSPDHFVSDYTRDTLKTLVHEHGVIPILATGRSYADVRIIADNLKAYIWCDGTAAPGARAPASPSRAPVIYLITSNGATVHNGVTHEVVFRTSIDPALAEKLLQLLPSDEEVVNTNAYQNDDWVCRIDWPKMMAVSKESGIRFIHVPHPLPSSSCALGSAAASPDAAARGIAIGDYTGISKIFFITDDAARLAALADEVHAIAKAHGGAPVSLTFSMSDCMDIMANGVTKGEALKRLFGAILPSRDGVDVVADALAHAIAFGDGLNDAEMLASVGKGCVMGNANPKLIAQHPELEVILTNAEDGVAKKLRSAFHLPL” here?
**A.** soluble

**Q.** For “KMKLYNFWRSGTSHRLRIALNLKGVPYEYLAVHLGKEEHLKDAFKALNPQQLVPALDTGAQVLIQSPAIIEWLEEQYPTPALLPADADGRQRVRALAAIVGCDIHPINNRRILEYLRKTFGADEAAINAWCGTWISAGFDAYEALLAVDPKRGRYSFGDTPTLADCYLVPQVESARRFQVDLTPYPLIRAVDAACGELDAFRRAAPAAQPDSA”, which “soluble on expression in E. coli” value is on record?
**A.** soluble
